# ± gives the uncertainty stated by the source.
# B1: CD2-associated protein, residues 109 to 169; numbered along this chain, Q9Y5K6 (parent)
# chain: KKRQCKVLFEYIPQNEDELELKVGDIIDINEEVEEGWWSGTLNNKLGLFPSNFVKELEVTD
# Variants of: B1
# Test: abundance fitness (aPCA) (normalised: wild type 0, dead -1); higher = more abundant; growth selection in yeast, the domain comes from the species named
# Settings: Homo sapiens
row,Variant,abundance fitness
1,KKRQCKVLFEYIPQNEDELELKVWDIIDINEEVEEGWWSGTLNNKLGLFPSNFVKELEVTD,-0.764 ± 0.27
2,KKRQCKVLFERIPQNEDELELKVGDIIDINEEVEEGWWSGTLNNKLGLFPSNFVKELEVTD,0.072 ± 0.094
3,KKRQCKVLFEEIPQNEDELELKVGDIIDINEEVEEGWWSGTLNNKLGLFPSNFVKELEVTD,-0.73 ± 0.21
4,KKRQCKVLFENIPQNEDELELKVGDIIDINEEVEEGWWSGTLNNKLGLFPSNFVKELEVTD,-0.344 ± 0.42
5,KKRQCKVLFEYIPQNEDELELKVGDIIDINEEVEEGWWSGGLNNKLGLFPSNFVKELEVTD,-0.517 ± 0.15
6,KKRQCKVLFEYIPQNEDELELKVGDIIDINEEVEEGWWSGLLNNKLGLFPSNFVKELEVTD,-0.318 ± 0.095
7,KKRQCKVLFEYIPQNEDELELKVGDIIDNNEEVEEGWWSGTLNNKLGLFPSNFVKELEVTD,-0.431 ± 0.21
8,KERQCKVLFEYIPQNEDELELKVGDIIDINEEVEEGWWSGTLNNKLGLFPSNFVKELEVTD,0.145 ± 0.3
9,KPRQCKVLFEYIPQNEDELELKVGDIIDINEEVEEGWWSGTLNNKLGLFPSNFVKELEVTD,-0.293 ± 0.28
10,KKRQCKVLFEYIPQNEDELELKVGDIIDINEEVEEGWWSGTLNNKLGLFPSNFVVELEVTD,-0.146 ± 0.078
11,KKRQCKVLFEYIPQNEDELELKVGDIIDINEEVEEGMWSGTLNNKLGLFPSNFVKELEVTD,-0.267 ± 0.12
12,KKRQCKVLFEYIPQNEDELELKVGDIIDINEEVEEGKWSGTLNNKLGLFPSNFVKELEVTD,-0.681 ± 0.48
13,KKRQCKVLFEYIPQNEDELELKVGDIIDINEEVEEGTWSGTLNNKLGLFPSNFVKELEVTD,-0.366 ± 0.28
14,KKRQCKVLFEYIPQNEDELELKVGDIIDINEEVEEGWWSGTLNNKLGLFTSNFVKELEVTD,-0.367 ± 0.16
15,KKRQCKVLFEYIPQNEDELELKVGDIIDINEEVEEGWWSGTLNNKLGLFASNFVKELEVTD,-0.941 ± 0.31
16,KKRQCKVLFEYIPQNEDELELKVGDIIDINEEVEEGWWSGTLVNKLGLFPSNFVKELEVTD,-0.679 ± 0.21
17,KKRQCKVLFEYIPQNEDELELKVGDIIWINEEVEEGWWSGTLNNKLGLFPSNFVKELEVTD,-0.268 ± 0.15
18,KKRQCKVLFEYIPQNEDELELKVGDIITINEEVEEGWWSGTLNNKLGLFPSNFVKELEVTD,-0.209 ± 0.14
19,KKRQCKVLFEYIPQNEDELELKVGDIIAINEEVEEGWWSGTLNNKLGLFPSNFVKELEVTD,-0.536 ± 0.19
20,KKRQCKVLFEYIPQNEDELELKVGDIIDINEEVEEGWWSGTLNRKLGLFPSNFVKELEVTD,-0.273 ± 0.16
21,KKRQCKVLFEYIPQNEDELELKVGDIIDINEEVEEGWWSGTLNNKLGLFPSNFVKELEVTV,-0.312 ± 0.24
22,KKRQCKVLFEYIPQNEDELELKVGDIIDINEEVEEGWWSGTLNNKLGLFPSNFVKELEVTL,-0.301 ± 0.14

row,Variant,abundance fitness
1,KKRQCKVLFEYIPQNEDELELKVGDIIDINEEVELGWWSGTLNNKLGLFPSNFVKELEVTD,-0.452 ± 0.13
2,KKRQCKVLFEYIPQNEDELELKVGDIIDINEEVEMGWWSGTLNNKLGLFPSNFVKELEVTD,-0.169 ± 0.25
3,KKRQCKVLFEYIPQNEDELELKVGDIIDINEEVEQGWWSGTLNNKLGLFPSNFVKELEVTD,-0.153 ± 0.19
4,KKRLCKVLFEYIPQNEDELELKVGDIIDINEEVEEGWWSGTLNNKLGLFPSNFVKELEVTD,0.271 ± 0.21
5,KKRQCKVLFEYIPQNEDELELKVGDIIDINEEVEEGWWSGTLNNKLGLFPSNFVKELCVTD,-0.073 ± 0.12
6,KKRQCKVLFEYIPQNEDELELKVGDIIDINEEVEEGWWSGTLNNKLGLFPSNFVKELWVTD,0.098 ± 0.16
7,KKRQCKVLFEYIPQNEDELELKVGDIIDINEEVEEGWWSGTLNNKLGLFPSNFVKETEVTD,-0.269 ± 0.13
8,KKRQCKVLFEYIPQNEDELELKVGDILDINEEVEEGWWSGTLNNKLGLFPSNFVKELEVTD,-0.436 ± 0.11
9,KKRQCKVLFEYIPQNEDELELKVGDIPDINEEVEEGWWSGTLNNKLGLFPSNFVKELEVTD,-0.61 ± 0.33
10,KKRQCKVVFEYIPQNEDELELKVGDIIDINEEVEEGWWSGTLNNKLGLFPSNFVKELEVTD,-0.035 ± 0.11
11,KKRQCKVHFEYIPQNEDELELKVGDIIDINEEVEEGWWSGTLNNKLGLFPSNFVKELEVTD,-0.401 ± 0.33
12,KKHQCKVLFEYIPQNEDELELKVGDIIDINEEVEEGWWSGTLNNKLGLFPSNFVKELEVTD,-0.122 ± 0.099
13,KKLQCKVLFEYIPQNEDELELKVGDIIDINEEVEEGWWSGTLNNKLGLFPSNFVKELEVTD,-0.178 ± 0.086
14,KKDQCKVLFEYIPQNEDELELKVGDIIDINEEVEEGWWSGTLNNKLGLFPSNFVKELEVTD,-0.283 ± 0.13
15,KKYQCKVLFEYIPQNEDELELKVGDIIDINEEVEEGWWSGTLNNKLGLFPSNFVKELEVTD,-0.58 ± 0.11
16,KKRQCKVLFEYIPQLEDELELKVGDIIDINEEVEEGWWSGTLNNKLGLFPSNFVKELEVTD,-0.468 ± 0.1
17,KKRQCKVLFQYIPQNEDELELKVGDIIDINEEVEEGWWSGTLNNKLGLFPSNFVKELEVTD,-0.146 ± 0.15
18,KKRQCKVLFEYIPQNEDELELKVGDIIDINEEVEEGWWSLTLNNKLGLFPSNFVKELEVTD,-1.17 ± 0.29
19,KKRQCKSLFEYIPQNEDELELKVGDIIDINEEVEEGWWSGTLNNKLGLFPSNFVKELEVTD,-0.399 ± 0.13
20,KKRQCKVLFEYIPQNEDELELKVGDIIDINEEVEEGWWSGTLNNKLGLFPSEFVKELEVTD,0.053 ± 0.086
21,KKRQCKVLFEYIPQNEDELELKVGDIIDINEEVEEGWFSGTLNNKLGLFPSNFVKELEVTD,-0.263 ± 0.12
22,KKRQCKVLFEYIPQNEDELELKVGDIIDINEEVEEGWCSGTLNNKLGLFPSNFVKELEVTD,-0.385 ± 0.18

row,Variant,abundance fitness
1,KKRQCKVLFEYIPQNEDELELKLGDIIDINEEVEEGWWSGTLNNKLGLFPSNFVKELEVTD,-0.369 ± 0.2
2,KKRQCKVLFEYIPQNEDELELKVGDIIDINEEVEEGWWLGTLNNKLGLFPSNFVKELEVTD,0.057 ± 0.061
3,KKRQCKVLFEYIPQNEDELELKVGDIIDINEVVEEGWWSGTLNNKLGLFPSNFVKELEVTD,-0.155 ± 0.3
4,KKRQCKVLFEYIPQNEDELELKVGDIIDINELVEEGWWSGTLNNKLGLFPSNFVKELEVTD,-0.689 ± 0.42
5,KKRQCKVLFEYIPQNEDELELKVGDIIDINEGVEEGWWSGTLNNKLGLFPSNFVKELEVTD,-0.188 ± 0.17
6,KKRQCKVLFEYIPQNEDELELKVGDIIDINSEVEEGWWSGTLNNKLGLFPSNFVKELEVTD,-0.33 ± 0.13
7,KKRQCKVLFEYIPQNEDELELKVGDIIDINYEVEEGWWSGTLNNKLGLFPSNFVKELEVTD,-0.122 ± 0.25
8,KKRQCKVLFEYIPQNEDELELKVGDIIDINPEVEEGWWSGTLNNKLGLFPSNFVKELEVTD,-0.855 ± 0.46
9,KKRQCKVLFEYIPQNEDELELKVGDIIDINWEVEEGWWSGTLNNKLGLFPSNFVKELEVTD,-0.755 ± 0.2
10,KKRQCKVLFEYIPQNEDELELKVGDIIDINIEVEEGWWSGTLNNKLGLFPSNFVKELEVTD,-0.116 ± 0.44
11,KKRQCKVLQEYIPQNEDELELKVGDIIDINEEVEEGWWSGTLNNKLGLFPSNFVKELEVTD,0.083 ± 0.12
12,KKRQCKVLREYIPQNEDELELKVGDIIDINEEVEEGWWSGTLNNKLGLFPSNFVKELEVTD,0.18 ± 0.075
13,KKRQCKVLFEYIPQNEDELELKVGDIIDINEEVEEGWWSGTLNNKLGLFPSNFQKELEVTD,-0.546 ± 0.41
14,KKRQCKVLFEYIPQNEDELELKVGDIIDINEEVEEGWWSGTLNNKLGLFPSNFRKELEVTD,-0.969 ± 0.31
15,KKRQCKVLFEYIPQNEDELELKVGDIIDINEEVEEGWWSGTLNNKLGLFPSNFIKELEVTD,-0.113 ± 0.12
16,KKRQCKVLFEYIPQNEDELELKVGDIIDINEEVEEGWWSGTLNNKLGLFPSNFVKWLEVTD,-0.769 ± 0.19
17,KKRQCKVLFEYIPQNEDELELKVGDIIDINEEVEEGWWSGTLNNKLTLFPSNFVKELEVTD,-0.644 ± 0.16
18,KKRQCKVLFEYIPSNEDELELKVGDIIDINEEVEEGWWSGTLNNKLGLFPSNFVKELEVTD,-0.325 ± 0.25
19,KKRQCKVLFEYIPQNEDELELKVGDIIDIQEEVEEGWWSGTLNNKLGLFPSNFVKELEVTD,-0.043 ± 0.19
20,KKRQCKVLFEYIPQNLDELELKVGDIIDINEEVEEGWWSGTLNNKLGLFPSNFVKELEVTD,-0.403 ± 0.15
21,KKRQCKVLFEYIPQNQDELELKVGDIIDINEEVEEGWWSGTLNNKLGLFPSNFVKELEVTD,-0.007 ± 0.27
22,KKRQCKVLFEYTPQNEDELELKVGDIIDINEEVEEGWWSGTLNNKLGLFPSNFVKELEVTD,0.106 ± 0.14

row,Variant,abundance fitness
1,KKRQCKVLFEYQPQNEDELELKVGDIIDINEEVEEGWWSGTLNNKLGLFPSNFVKELEVTD,-0.267 ± 0.27
2,KKRQCKVLFEYIPQNEDELELKVGDIIDINEEVEEGWWSGTLNNKLGLFPSNFVKELEETD,0.174 ± 0.14
3,KKRQCKVLFEYIPQNEDELELKVGDIIDINEEVEEGWWSGTLNNKLGLFPSNFVKELEHTD,-0.012 ± 0.13
4,KKRQCKVLFEYIPQNEDELELKVGDIIDINEEVEEGWWSGTLNNKLGLFPSNFVKELEFTD,0.229 ± 0.14
5,KKRQCKVLFEYIPQNEDELELKVGDIIDINEEVEEGWWSGTLNNKLGLFPSNFVKELEVLD,0.01 ± 0.14
6,KKRQCKVLFEYIPQNEDELMLKVGDIIDINEEVEEGWWSGTLNNKLGLFPSNFVKELEVTD,-0.229 ± 0.24
7,KKRQCKVLFEYIPQNEDELSLKVGDIIDINEEVEEGWWSGTLNNKLGLFPSNFVKELEVTD,-0.317 ± 0.17
8,KKRQCKVLFEYIPQNEPELELKVGDIIDINEEVEEGWWSGTLNNKLGLFPSNFVKELEVTD,-0.518 ± 0.21
9,KKRQCKVLFEYIPQNEGELELKVGDIIDINEEVEEGWWSGTLNNKLGLFPSNFVKELEVTD,-0.092 ± 0.12
10,KKRQCKVLFEYIPQNEHELELKVGDIIDINEEVEEGWWSGTLNNKLGLFPSNFVKELEVTD,-0.343 ± 0.24
11,KKRQCKVLFEYIPQNEDELELKVGDIIDINEEVEEGWWSGTLNNKLGLCPSNFVKELEVTD,-0.953 ± 0.34
12,KKRQCKVLFEYIPQNEDELELKVGDIIDINEEVEEGWWSGTLNNKLGEFPSNFVKELEVTD,-0.539 ± 0.14
13,KKRQCKVLFEYIPQNEDELELKVGDIIDINEEVEEGWWSGTLNNKLGPFPSNFVKELEVTD,-0.403 ± 0.12
14,KKRQCKVLFEYIPQNEDELEAKVGDIIDINEEVEEGWWSGTLNNKLGLFPSNFVKELEVTD,-0.838 ± 0.19
15,KKRQCKVLFEYIPQNEDELELKVGDIIDINEEVEEGWWSGTQNNKLGLFPSNFVKELEVTD,-0.432 ± 0.4
16,KKRQCKVLFEYIPQNEDELELKVGDVIDINEEVEEGWWSGTLNNKLGLFPSNFVKELEVTD,-0.262 ± 0.11
17,KKRQCKVLFEYIPQNEDELELKVGDIIDINEEVEEGWWSGTLNNKLGLFPCNFVKELEVTD,-0.311 ± 0.16
18,KKRQCKVLFEYIPQNEDELELKVGDIIDINEEVEEGWWSGTLNNKLGLFPQNFVKELEVTD,-0.307 ± 0.15
19,KKRQCWVLFEYIPQNEDELELKVGDIIDINEEVEEGWWSGTLNNKLGLFPSNFVKELEVTD,-0.119 ± 0.086
20,KKRQCHVLFEYIPQNEDELELKVGDIIDINEEVEEGWWSGTLNNKLGLFPSNFVKELEVTD,-0.02 ± 0.077
21,MKRQCKVLFEYIPQNEDELELKVGDIIDINEEVEEGWWSGTLNNKLGLFPSNFVKELEVTD,-0.184 ± 0.22
